{"source": "paper PMC8990217", "about": "“DUX4 is a multifunctional factor priming human embryonic genome activation” (iScience, 2022)", "binders": {"B1": {"name": "DUX4 9aaTAD peptide for binding analysis (peptide)", "peptide": "CGLLLDELLASPEFLQQ", "notes": "source: synthetic peptide, bought: GenScript"}, "B2": {"name": "DUX4 KBM peptide for binding analysis (peptide)", "peptide": "EEEYRALLEE", "notes": "as for B1"}}, "key": {"[1]": {"molecular_target": "T1, human KIX domain of CBP (residues 587-673) with 36 extra N-terminal residues (human, UniProt Q92793 587-673, RED-tris-NTA dye bound non-covalently to the His tag)", "T1 construct": "synthetic codon-optimised gene in pET100/TOPO; construct 14.5 kDa; no cleavage is described; also called His-tagged KIX domain; source: E. coli BL21 DE3, purified (Histrap HP, Resource Q, Superdex 75); not shown: His6, N-terminal, kept", "T1 sequence (Q92793 587-673)": "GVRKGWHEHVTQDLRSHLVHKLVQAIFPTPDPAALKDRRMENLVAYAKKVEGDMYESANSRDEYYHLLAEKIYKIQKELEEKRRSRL", "assay": "MST; His-tagged KIX labelled with RED-tris-NTA, 20 nM; peptide varied; PBS-Tween (pH 7.4; 0.05% v/v Tween 20); Monolith NT", "conditions": "both partners purified"}, "[2]": {"molecular_target": "T1, human KIX domain of CBP (residues …)", "assay": "MST; as a1, KBM peptide binding to labelled KIX in the presence of the 9aaTAD peptide (its concentration not told)", "conditions": "both partners purified"}}, "data": [{"binder": "B1", "values": [{"measurement": "Kd", "setting": "[1]", "result": "~200", "unit": "nM"}]}, {"binder": "B2", "values": [{"measurement": "Kd", "setting": "[2]", "result": "~1100", "unit": "nM"}, {"measurement": "Kd", "setting": "[1]", "result": "~600", "unit": "nM"}]}]}
